Columns and labels:
FANCA;FAAP20;FANCG = FANCA;FAAP20;FANCG (human;human;human, UniProt O15360;Q6NZ36;O15287 1-1455;1-180;1-622, ||); assay: EMSA; 10 nM each; slightly additive over FANCA+FANCG or FANCA+FAAP20; EMSA: 125 mM Tris pH 7.5, 5 mM EDTA, 6% glycerol, 1 mM DTT, 100 mM NaCl, 1 nM substrate, RT 45 min; 4% native PAGE in 1x TAE; details: protein: recombinant;recombinant;recombinant; tags: none (native FANCA);C-terminal 6xHis;N-terminal 6xHis; label: 32P 5' (T4 PNK); single strand
FANCA;FANCG = FANCA;FANCG (human;human, UniProt O15360;O15287 1-1455;1-622, |); assay: EMSA; 10 nM each; higher affinity than FANCA alone; EMSA: 125 mM Tris pH 7.5, 5 mM EDTA, 6% glycerol, 1 mM DTT, 100 mM NaCl, 1 nM substrate, RT 45 min; 4% native PAGE in 1x TAE; details: protein: recombinant;recombinant; tags: none (native FANCA);N-terminal 6xHis; copies: 1;1; label: 32P 5' (T4 PNK); single strand
FAAP20 = target: T1, FAAP20 (human, UniProt Q6NZ36 1-180); assay: EMSA; FAAP20 9-24 nM; EMSA: 125 mM Tris pH 7.5, 5 mM EDTA, 6% glycerol, 1 mM DTT, 100 mM NaCl, 1 nM substrate, RT 45 min; 4% native PAGE in 1x TAE; details: protein: recombinant; tags: C-terminal 6xHis; label: 32P 5' (T4 PNK); single strand
T1 sequence: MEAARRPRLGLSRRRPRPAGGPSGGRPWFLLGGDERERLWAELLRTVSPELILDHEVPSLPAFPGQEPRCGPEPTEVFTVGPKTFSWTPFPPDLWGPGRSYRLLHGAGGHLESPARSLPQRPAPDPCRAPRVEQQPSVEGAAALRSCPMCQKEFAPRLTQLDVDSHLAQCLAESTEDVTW

FANCA;FAAP20 [1] = target: T2, FANCA;FAAP20 (human;human, UniProt O15360;Q6NZ36 1-1455;1-180, |); assay: EMSA; FANCA 10 nM, FAAP20 9-24 nM; FAAP20 increases FANCA affinity; EMSA: 125 mM Tris pH 7.5, 5 mM EDTA, 6% glycerol, 1 mM DTT, 100 mM NaCl, 1 nM substrate, RT 45 min; 4% native PAGE in 1x TAE; details: protein: recombinant;recombinant; tags: none (native FANCA);C-terminal 6xHis; copies: 1;1; label: 32P 5' (T4 PNK); single strand
FANCA;FAAP20 [2] = target: T2, FANCA;FAAP20; assay: EMSA; fixed suboptimal FANCA, FAAP20 titrated; binding stimulated; EMSA: 125 mM Tris pH 7.5, 5 mM EDTA, 6% glycerol, 1 mM DTT, 100 mM NaCl, 1 nM substrate, RT 45 min; 4% native PAGE in 1x TAE; details: protein: recombinant;recombinant; tags: none (native FANCA);C-terminal 6xHis; copies: 1;1; label: 32P 5' (T4 PNK); single strand
FANCA;FAAP20 [3] = target: T2, FANCA;FAAP20; assay: EMSA; FANCA 10 nM, FAAP20 9-24 nM; binding stimulated; EMSA: 125 mM Tris pH 7.5, 5 mM EDTA, 6% glycerol, 1 mM DTT, 100 mM NaCl, 1 nM substrate, RT 45 min; 4% native PAGE in 1x TAE; details: protein: recombinant;recombinant; tags: none (native FANCA);C-terminal 6xHis; copies: 1;1; label: 32P 5' (T4 PNK); fork, 25 bp duplex; unpaired 3' arm 30 nt (strand 1) and 5' arm 25 nt (strand 2); 1 nt 3' overhang on strand 2 as printed

T2 sequence (O15360 whole entry, one chain of several): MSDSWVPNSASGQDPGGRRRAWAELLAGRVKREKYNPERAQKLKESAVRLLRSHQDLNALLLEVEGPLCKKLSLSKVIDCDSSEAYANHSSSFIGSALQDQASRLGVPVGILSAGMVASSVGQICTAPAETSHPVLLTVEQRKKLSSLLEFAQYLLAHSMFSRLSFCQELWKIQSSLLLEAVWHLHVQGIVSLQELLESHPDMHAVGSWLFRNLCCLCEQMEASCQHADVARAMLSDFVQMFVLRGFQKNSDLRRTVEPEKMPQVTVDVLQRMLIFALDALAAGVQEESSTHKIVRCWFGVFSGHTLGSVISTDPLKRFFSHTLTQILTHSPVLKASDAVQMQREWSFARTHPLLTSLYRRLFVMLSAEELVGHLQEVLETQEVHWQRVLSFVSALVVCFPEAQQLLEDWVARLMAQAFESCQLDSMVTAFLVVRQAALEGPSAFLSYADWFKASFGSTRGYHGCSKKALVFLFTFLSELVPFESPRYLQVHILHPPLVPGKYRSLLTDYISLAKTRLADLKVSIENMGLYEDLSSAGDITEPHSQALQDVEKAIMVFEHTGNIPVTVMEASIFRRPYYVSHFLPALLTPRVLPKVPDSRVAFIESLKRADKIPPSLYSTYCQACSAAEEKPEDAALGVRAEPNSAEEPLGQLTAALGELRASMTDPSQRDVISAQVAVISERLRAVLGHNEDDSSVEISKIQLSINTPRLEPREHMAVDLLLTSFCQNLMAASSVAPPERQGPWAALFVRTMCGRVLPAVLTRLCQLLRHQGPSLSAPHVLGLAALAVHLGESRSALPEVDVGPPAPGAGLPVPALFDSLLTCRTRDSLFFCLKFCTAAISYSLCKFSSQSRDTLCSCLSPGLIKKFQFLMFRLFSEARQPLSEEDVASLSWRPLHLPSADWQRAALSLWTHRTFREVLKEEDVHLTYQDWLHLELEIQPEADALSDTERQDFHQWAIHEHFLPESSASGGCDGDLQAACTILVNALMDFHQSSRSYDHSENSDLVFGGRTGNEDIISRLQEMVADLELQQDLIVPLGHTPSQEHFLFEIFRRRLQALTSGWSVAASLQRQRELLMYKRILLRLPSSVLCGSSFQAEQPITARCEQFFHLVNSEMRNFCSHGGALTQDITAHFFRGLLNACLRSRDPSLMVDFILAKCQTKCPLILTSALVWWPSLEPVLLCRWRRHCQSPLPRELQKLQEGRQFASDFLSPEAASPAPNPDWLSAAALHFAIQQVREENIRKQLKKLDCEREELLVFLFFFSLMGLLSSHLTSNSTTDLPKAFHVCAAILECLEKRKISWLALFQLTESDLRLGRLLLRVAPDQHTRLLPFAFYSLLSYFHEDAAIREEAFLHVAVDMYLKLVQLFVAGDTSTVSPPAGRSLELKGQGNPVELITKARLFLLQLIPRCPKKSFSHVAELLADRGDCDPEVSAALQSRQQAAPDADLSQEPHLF
Sequence of FANCA;FAAP20;FANCG (O15360 whole entry, chain 1 of 2): as the sequence (O15360 whole entry, one chain of several) above
Sequence of FANCA;FAAP20;FANCG (O15287 whole entry, chain 3 of 2): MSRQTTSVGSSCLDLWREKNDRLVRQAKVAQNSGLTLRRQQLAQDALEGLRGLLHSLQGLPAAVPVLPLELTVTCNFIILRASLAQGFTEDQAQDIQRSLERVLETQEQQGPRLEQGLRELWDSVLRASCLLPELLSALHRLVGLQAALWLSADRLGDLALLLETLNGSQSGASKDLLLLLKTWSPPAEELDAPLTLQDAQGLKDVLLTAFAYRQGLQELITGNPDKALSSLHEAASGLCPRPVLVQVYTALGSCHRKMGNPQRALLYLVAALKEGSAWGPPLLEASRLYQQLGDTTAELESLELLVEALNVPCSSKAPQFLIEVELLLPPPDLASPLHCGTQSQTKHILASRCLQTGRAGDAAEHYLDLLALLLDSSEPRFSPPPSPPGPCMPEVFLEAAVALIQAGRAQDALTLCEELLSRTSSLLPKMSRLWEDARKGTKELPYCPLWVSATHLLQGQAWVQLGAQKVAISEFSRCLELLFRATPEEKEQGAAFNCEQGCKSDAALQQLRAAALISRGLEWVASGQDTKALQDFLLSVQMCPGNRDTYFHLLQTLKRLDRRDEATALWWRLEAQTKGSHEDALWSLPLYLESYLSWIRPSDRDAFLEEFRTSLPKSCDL
Sequence of FANCA;FANCG (O15360 whole entry, chain 1 of 2): as the sequence (O15360 whole entry, one chain of several) above
Sequence of FANCA;FANCG (O15287 whole entry, chain 2 of 2): as the sequence (O15287 whole entry, chain 3 of 2) above

B1: EMSA ssDNA 61-mer (ssDNA)
DNA: GACGCTGCCGAATTCTACCAGTGCCTTGCTAGGACATCTTTGCCCACCTGCAGGTTCACCC
B1: binds (FANCA;FAAP20;FANCG); binds (FANCA;FANCG); no binding (FAAP20). B1: binds (FANCA;FAAP20 [1]).

B2: EMSA ssRNA 61-mer (ssRNA)
RNA: GACGCUGCCGAAUUCUACCAGUGCCUUGCUAGGACAUCUUUGCCCACCUGCAGGUUCACCC
B2: binds (FANCA;FAAP20 [2]).

B3: splayed arm DNA (mixed)
DNA 1: GTCCTCCACCGCAGCCCACCTGCCCACCTTGTTGCTGATCTCAATCAGCTCTGGA
DNA 2: GCTGGCACGGTCGGATTTAAAGTTAGGGCAGGTGGGCTGCGGTGGAGGACG
B3: binds (FANCA;FAAP20 [3]).
